Literature values in PMC7083049.

Target: histone H4 (Homo sapiens) (UniProt P62805)

JMJD2A Tudor domains (from UniProt O75164)
Kd: 2000 nM
